Data taken from the nanobody polyreactivity screen of Harvey et al. (2022).

Experiment: yeast display, Sf9 membrane polyspecificity reagent, FACS + sequencing; frameworks hold sequencing errors
How it was run: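 A synthetic nanobody library was expressed on Saccharomyces cerevisiae BJ5465 by galactose induction for 36–48 hours. The library was stained for 1 hour at 4 °C with 10% biotinylated, detergent-solubilized Sf9 membrane reagent and enriched with streptavidin microbeads before FACS. Low and high (top ~1%) gates were set on anti-HA fluorescence for expression and streptavidin fluorescence for reagent binding, and each polyreactivity label reflects the gate of origin.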

Sequence	polyreactivity (PSR sort gate)
QVQLVESGGGLVQAGGSLRLSCAASGRNFNFNTIGWYRQAAGKEREFLAAITFRGVRTYYADSVKGRFTISRDNAKNTVYLQMISLKPEDTAVYYCATQARLYGGYDRYAGSYDYWGQGTQVTVSS	high polyreactivity
QVQLVESGGGLVQAGGSLRLSCAASGLTFVWYGMGWYRQAPGKERELVAAITRGGSTYYADSVKGRFTISRDNAKNTVYLQMNSLKPEDTAVYYCAARYKYTGYDYWGQGTQVTVSS	high polyreactivity
QVQHVESGGGLVQAGGSLRLSCAASGRIFRFNAMGWYRKAPGKERELVAAISWRSSNTYYADSVKGRFTISRDNAKNSVYLQMNSLKPEDTAVYYCAASTASSKYRYEYWGQGTQVTVSS	high polyreactivity
QVQHVESGGGLVQAGGSLRLSCAASGSIFDVYTMGWYRQAPGKQRELVAAINTGGGSTYYADSVKGRFTISRDNAKNTVYLQMISLKPEDTAVYYCAASVYHYGPLYYWGQGTQVTVSS	low polyreactivity
QVQLVESGGGLVQAGGSLRLSCAASGFTLGWYVMGWYRQAPGKERELVAGISWSGGNTYYADSVKGRFTISRDNAKNTVYLQMHSLKPEDTAVYYCNADRTYPDYDYWGQGTQVTVSS	low polyreactivity
QVQLVESGGGLVQAGGSLRLSCDASGRIFYRYTMGWYRQAPGKERELVAAITDDSSTDYADSVKGRFTISRDNAKNTVYLQMNSLKPEDTAVYYCNADWYWKYDYWGQGTQVTVSS	low polyreactivity
QVQLVDSGGGLVQGGGSLRLSCADSGYIFGRNAMGWYRQATGKEREFVAALSSSGSSTYYADSVKGRFTISRDNEKNTDYLQLNSLKPEDTAVDYCNAVRYYLAVPYDSWGQGTQVTVSS	high polyreactivity
QVQLVESGGGLVQAGGSLRLSCAASGRIFWLYAMGWYRQAPGKERELVAAITGIGGSTYYADSVKGRFTISRDNAKNTVYLQMNSLKPEDTAVYYCAARYPATYPSMGYWGQGTQVTVSS	low polyreactivity
QVHHVESGGGLVQAGGILRLSCAASGFTIFKYAMGWSRQKPGKERELVATISIDGITNYADSVKGRFTISRDNAKNTVYLQMNILKPEDTAVYYCHALSLYQQLGYWGQGTQVTVSS	low polyreactivity
QVQLVESGGGLVQAGGSLRLSCAASGGIFAYNAMGWYRQAPGKERELVATISSGVSTNYADSVKGRFTISRDNAKNTVYLPMNSLKPEDTAVYDCAAAIFITGYGSYGYWGQGTQVTVSS	low polyreactivity
QVQLVESGGCLVQAGGSLRLSCAASGITFYVYAMGWYRQAPGKESELVASITSGGGSTDYADSVKGRVTISRDNAKNTVYLQMNSLKPEDTAVYYCAARYPLLNQLYDFDYWGQGTQVTVSS	low polyreactivity
QVQLVESGGGLVQAGGSLRLSCAASGSTFAPYAMGWYRQAPGKERELVAVISSAGSTYYADSVKGRFTLSRDNAKNTDYLQRNSLKPEDTAVYYCAARAPSSISQSRGMYYWGQATQVTVSS	high polyreactivity
QVQLVESGGGLVQAGGSLRLSCAASGFTFSSYAMGWYRQAPGKERELVAAISYSGGSTYYADSVKGRFTISRDNAKNTVYLQMNSLKPEDTAVYYCAAQRGSEYYWGQGTQVTVSS	high polyreactivity
QVQLVESGGGLVQAGGSLRLSCAAYGITFRAYAMGWYRQAPGKEREFVASISGSGGSTYSADSVKGRFTISRDNAKNTVYFQMNSLKPEDTAVYYCATRRWGLATPTRYDYWGQGTQVTVSS	high polyreactivity
QVQLVESGGCLVQAGGSLRLSCAASGFIFAYNAMGWYRQAPGKERELDAAISWSGGSTYYADSVKGRFTISRDNAKNTVYLQMNSLKPEDTAVYYCNKYIRYPFKRYGYWGQGTQVTVSS	high polyreactivity
QVQLVESGGGLVQAGGSLRLSCAASGIIFLYYAMGWYRQAPGKERELVAAISSGGSTYYADSVKGRFTISRDNAKNTVYLQMNSLKPEDTAVYYCAARPRKSRAYTALGDYWGQGTQVTVSS	high polyreactivity
QVQLVESGGGVVQAGGSLRLSCAASGITIEANAMGLYRQAPGKERELVAAIDRSGGSKYYADSVKGRFTISRDNAKNTVYLQMNSLKPEDTAVYYCAADGRASVGGLGDDYWGQGTQVTVSS	low polyreactivity
QVQLVESGGGLVQAGGSLRLSCSASGRTFLGYAMGWYRQAPGKERELVAAITIGGGTYADSVKGRFTISRDNAKNTVYLQMNSLKPEDTAVYYCAKPGWYDGDYWGQGTQVTVSS	low polyreactivity
QVQLVESGGGLVQAGGSLRLSCPASGSNFGVYAMAWYRQAPGKERELVAAITSSGGSTYYADSVKGRFTISRDNAKNTVYFQMNSLKPEDTAVYYCSKDSFSHSHYTRYGYWGQGSQVTVSS	low polyreactivity
QVQLEESGGGLVQAGGSLRLSCAASGRIIQQYAMGWSRQAPGKDRELVAAISRGGSTYYADSEKGRFTISRDNAKNTVYLLMYSLKPEDTAVYDCNAGVGFTSAPQKYYYWGEGTQVTVSS	high polyreactivity
QVQLVESGGGLVQAGGSLRLSCAASRRIYGGNAMGLNRKAPGKERELVAAINSSGGRTYYADSVKGRFKISRDNAKNTVYLQMKSLKTEDTAVYYCAGRVGCNWYDYWGQGTQVPVSS	high polyreactivity
QVQLVESGGGLVQAGGSLRLSCSASGIIFRSYAMGWYRQAPGKERELVAAITGGGTTNYADSVKGRFTISRDNAKNTVYLQMNRLKPEDTAVYYCNAGLDWFWFNEMDYWGQGTQVTVSS	low polyreactivity

Sequence	polyreactivity (PSR sort gate)
QVQLVESGGGLLQAGGSLRLSCAASGSILYWNAMGWYRQAPGKERELVAAITGSGGSTSYADSVKGRFTISRDNAKNTVYLQMNSLKPEDTAVYYCAALQFPTPLLLYDSWGQGTQVTVSS	low polyreactivity
QVQLVESGGGLVQAGGSLRLSCAASGRIFNGNAMGWYRQAPGKERELVAAISYSGGATYYADSVKGRFTISRDNAKNTVYLQMNSLKPEDTAVYYCAAAAWDPKGSRYDYWGQGTQVTVSS	low polyreactivity
QVQLVESGGGLVQAGGSLRLSCAASGRIIYNNAMGWSRQAPGTERELVAAISIGGITYYADSVKGRFTISRDNAKNTVYLQMNSLKPEDTAVYYCAALNTGYRTRRLGRDYWGQGTQVTVSS	low polyreactivity
QVQLVESGGGLVQAGGSLRLSCAASGIIFYYYTMGWYRQAPGKERELVAAISFSGSNTYYADSVKGRFTISRDNAKNTVYLQMNSLKPEDTAVYYCAARARKDSNRRTYGYWGQGTQVTVSS	high polyreactivity
QVQLVESGGGLVQAGGSHPLSCAASGSIFDLYDMGWYRQAPGKERELVAAISLIGGSTSYADSVKGRFTISRDNAKNSVYLQMNSLKPEDTAVYYCAVDSRPYLRDYWGQGTQVTISS	low polyreactivity
QVQLVESGGGLVQAGGSLRLSCAASGYIFGYYVMGWYRQAPGKERELVAAITGRGGSTYYADSVKGRFTISRDNAKNTVYLQMISLKPEDTAVYDCAADATSYPYDPWHLYEIWEYYYWGQGTQVTVSS	low polyreactivity
QVQLVESGGGLVQAGGSLRLSCAASGFTFTRYAMGWYRPAPGKERELVAAISWNGGSMYYADSVKGRFTISRDNAKNTVYLQMNSLKPEDTAVYYCAVRFKYQWSKFGYWGQGTQVTVSS	high polyreactivity
QVQLVESGGGLVQAGRSLRLSCAASGITLVRNAMGWSRQAPGKEMELVAAISSNGDNTYYADSVKGRFTISSDNAKNTVYLQMNSLKPEDTAVYYCAVGGPVIWWGPKYDYWGQGTQVTVSS	high polyreactivity
QVQLVESGGGLVQAGGSLRLSCAASGSIFPHNAMGWYRQAPGTERELVASITSRGGITYYADSVKGRFTISRDNAKNTVYLQMNSLKPEDTAVYYCAADLYIYPYDYWGQGTQVTVSS	low polyreactivity
QFQLVESGGGLDQAGGSLRLSCAASGRIFYRNCMGWYSQAPWKDRELVASIRRGGSTNYADSVKGRFTISRDNAKYTVYLQMNSVKPEDTAVYYCAARRFYPYISSGPYYYWGQGTQVTVSS	high polyreactivity
QVQLVESGGGLVQAGGSLRLSCAASGFIFSIYAMGWYRQAPGKERELVAAISKSGGRTYYADSVKGRFTISRDNAKNTVYLQMNSLKPEDTAVYYCAVDSYYKYDYWGQGTQVTVSS	high polyreactivity
QVQLVESGGGLVQAGGRLRLSCAASGSIFFYYAMGWYRQAPGKERELVADITSGGTTYYADSVKGRFTISRDNAKNTVSLQMNSLIPEDTAVYYCNAGLYPGQRPDYTNYSSDYWGQGTQVTVSS	low polyreactivity
QVQLVESAGGLVQAGGSLRLSCAASGFIINKYTMGWYRQAPGKERELVAAITWSGGTTYYADSVKGRFTISRDNAKNTVYLQMNSLKPEDTAVYYCAAYYYRGRVGAYDYWGQGTQVTVSS	high polyreactivity
QVQLVESGGGLVQAGGSLRLSCAASGLIFYGNAMGWYRQAPGKERELVAAISWSGGNTSYADSVKGRFTISRDNAKNTVYLQMNSLKPEDTAVYYCAVDNTGRSWPYDYWGQGTQVTVSS	low polyreactivity
QVHRGESGGGLVQAGGSLRLSCPASGFIFRYYPMGWYRQAPGKESELVASISYSGGTTYYADSVKGRFTISRDNAKNTVYLQMNSLKPEDTAVYYCNVYSRTHYQTYTDDYWGQGTQVTVSS	high polyreactivity
QFQLVESGGGLVQAGGSLRLSCAASGSTSYRNAMGWYRQAPGKEREFVAAISWSGGSTYYADSVKGRFTISRDNAKNTVYLQMNSLKPEDTADYYSNADAYGTPEFTSYAVRYDYWGQGTQVTVSS	low polyreactivity
QVQIVESGGGLVQAAVSLPISCPASGSIFGSYAMGWYRQAPGKERELVAAISKSGGSTYYADSVKGRFTISRDYAKNTVNLQMNSLKPEDTEVYYCAARAFLYAYRAYDYWGQGTQVNVSS	high polyreactivity
QVQLVESGGGLVQAGGSLPLSCAASGRTFRRYAMGWYRQAPGKETELVAAISWGAGSTRYADSVKGRFTISRDNAKNTVYLQLNSLKPEDTAVYYCAAENTRAYGMYYWGQGTQVTVSS	high polyreactivity
QVQLVESGGGLVQAGGSLRLSCAASGFIFSRNTMGWYRQAPGKERELVAAISRGGGSTYYADSVKGRFTISRDNAKNTVYLQMNSLKPEDTAVYYCNTRIVAAGRYDYWGQGTQVTVSS	high polyreactivity
QVQLVESGGGLVQAGGSLRLSFAASGITFYYYTMGWYRQAPGKERELVAGITRGGRTYYADSVKGRFTISRDNSKNSVYLQMNSLKPEDTAVYYFNADPWWRFDYWGQGTQVTVSS	low polyreactivity
QVQLVESGGGLVQAGGILRLSCAASGRTFGWNAMGWYRQAPGKERELVAAISWSGTNTYYADSVKGRFTISRDNAKNTVYLQMNCLNPEDTAVYYCAARDWTGSWNGYWYWEYNYWGQGTQVTVSS	low polyreactivity
